Data: patent publication US20250215070A1

B1: CTHRC1S-M14 (antibody, V domains shown)
VH: EVQVVESGGGLVQPGGSLRLSCAASRFTFSNYWMSWVRQAPGRGLEWVANIKQDGSEKYYVDSVKGRFTISRDNAKNSLYLQMNSLRAEDTAVYYCAREGGYCSDTRCFFYMDVWGKGTTVTVSS
VL: DIQMTQSPSTLSASVGDRVTITCRASQSIISWLAWYQQKPGKAPKLLIYKASSLEGGVPSRFSGSGSGTDFTLTISSLQPDDFATYYCQQYNSYSRTFGQGTTVEIK
B2: CTHRC1S-M11 (antibody, V domains shown)
VH: QVTLRESGPALVKPTQTLTLTCTFSGFSLSTNVMCVSWIRQPPGKALEWLALIDWDDDKYYSTSLKTRLTISKDTSKNQVVLTMTNMDPVDTATYYCARTGITGTHYYYYYMDVWGKGTTVTVSS
VL: AIQMTQSPSSLSASVGDRVTITCRASQGIRNDLGWYQQKPGKAPKLLIYAASSLQSGVPSRFSGSGFGTDFTLTISSLQPEDFATYYCLQDYNYPWTFGQGTKVEIK
B3: CTHRC1S-M5 (antibody, V domains shown)
VH: EVQLVESGGGLVTPGGSLRLSCAASGFTFSTYSMNWVRQAPGKGLEWVSSISGSSGHIYYADSVRGRFTISRDNAKNSLYLQMNSLRAEDTAVYYCASMHYYYYLDVWGKGTTVTVSS
VL: QAVVTQESALTTSPGETVTLTCRSSTGTVTTSNYVTWVQEKPDHLFTGLIGATNNRAPGVPARFSGSLIGDKAALTITGAQTEDEAIYFCALWYSNHWVFGGGTKLTVL

Molecular target: human Collagen triple helix repeat-containing protein 1 (CTHRC1) (human) (UniProt Q96CG8)
Sequence (Q96CG8 31-243): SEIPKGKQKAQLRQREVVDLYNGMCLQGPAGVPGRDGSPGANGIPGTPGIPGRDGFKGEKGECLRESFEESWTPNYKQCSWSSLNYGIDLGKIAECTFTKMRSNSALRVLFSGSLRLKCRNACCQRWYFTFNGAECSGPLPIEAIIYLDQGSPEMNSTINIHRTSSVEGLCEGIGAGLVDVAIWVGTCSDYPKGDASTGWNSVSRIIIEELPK
Assay: bio-layer interferometry; CTHRC1 species not stated

Row | Kd [nM] | Binder
1 | < 0.001 | B1
2 | 2 | B2
3 | 3.18 | B3

Molecular target: human Collagen triple helix repeat-containing protein 1 (CTHRC1) (human) (UniProt Q96CG8)
Assay: binding EC50 on huCTHRC1; method not stated (ELISA named in text)

Row | EC50 [nM] | Binder
4 | 0.05 | B1
5 | 9.76 | B2
6 | 1.85 | B3
